Percent inhibition of mAb IIH6 binding (at 33 nM E3) and percent inhibition of mAb IIH6 binding (at 3.3 μM E3) data for 1 substance are collected here from PMC2132475.

This experiment deals with α-dystroglycan on embryonic Xenopus myotomal muscle cells (Xenopus (endogenous in embryonic Xenopus muscle cells)). Put plainly: immunostaining of cells or tissue.

The substance “laminin fragment E3 (domain or fragment)” yielded a percent inhibition of mAb IIH6 binding (at 33 nM E3) of 41% and a percent inhibition of mAb IIH6 binding (at 3.3 μM E3) of 94%.
